Reference: the supplement of paper PMC12042874
± gives the uncertainty stated by the source.

Test: amyloid nucleation score (Sup35N fusion, yeast selection) (log enrichment); library NNK2; higher = more nucleation; inactive = no reads after selection
Outline: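 The nucleation score is a DiMSum log enrichment of output over input reads, centred on the mode score of non-aggregating sequences. Sequences under 100 input reads were excluded, and reads came from Illumina sequencing of plasmid inserts. Psi-negative yeast expressing Sup35N fused to peptides of 20 random codons were induced with 100 μM copper sulfate for 24 hours and grown 7 days at 30°C on medium lacking adenine and uracil. Random libraries had three technical output replicates.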

| Substance | amyloid nucleation score |
| --- | --- |
| DESICCQEVGNSRVDSDEGR | 2.94 ± 0.12 |
| DETNGTGSRVRLVRRYER | 0.946 ± 0.27 |
| DEWPWAVPSGVSRGCAGSVY | 0.231 ± 0.32 |
| DFDRSMRIARDNKRYGPVLV | -0.166 ± 1.1 |
| DFFYTYGGIYGYWSFRHGIV | -1.24 ± 0.62 |
| DFGREVVVIPLSEV | 0.323 ± 0.53 |
| DFGYYREIHDEEECSCLKVY | -0.981 ± 0.78 |
| DFLNWEDFCIMSECWNSTVQ | inactive |
| DFYGYRKDFFLEQCPACSLY | -1.38 ± 0.78 |
| DFYLFQG | 0.228 ± 0.56 |
| DGASIFSSAFIVGSGTLKQM | -0.911 ± 0.78 |
| DGFRGLGLFHTY | -0.561 ± 0.31 |
| DGFYCL | 0.019 ± 1.1 |
| DGISFSAKSSSYSDASLRMR | 1.62 ± 0.097 |
| DGKMNPVSAY | inactive |
| DGKNYVKTNSNGIRNGMSIW | -0.576 ± 0.76 |
| DGKVSC | inactive |
| DGNAVCDILLLTSIMVSVSA | -0.551 ± 0.54 |
| DGPIPLLSGMGHGGRYLWCV | 1.01 ± 0.18 |
| DGPLSLNSIHFTWLRAMDKV | -0.297 ± 1.1 |
| DGSNIFLLV | -0.482 ± 0.56 |
| DGVSHC | 0.02 ± 0.79 |
| DHCMMLRFN | 0.716 ± 0.6 |
| DHFGGCYMSATRSWHDFKMG | inactive |
| DHSEYSVITKFVLHRSCSQG | 8.451 ± 0.067 |
| DIMVERGAFIGLKAD | 5.41 ± 0.068 |

| Substance | amyloid nucleation score |
| --- | --- |
| DIVIDRNMSLWDPFNIVPFE | -0.27 ± 0.79 |
| DIVMCFLGRHHQSTEAGLSM | 4.49 ± 0.056 |
| DIWPNDLGYVFVLSA | -0.218 ± 0.53 |
| DKRGF | inactive |
| DKVDLSA | 0.053 ± 1.1 |
| DKYSIVSSGPYMSNKSLVRR | -0.109 ± 0.79 |
| DLDVN | -0.214 ± 0.56 |
| DLEIPFLKRKG | -0.349 ± 0.6 |
| DLFNRNIVVCSLFLGYMVTI | 2.99 ± 0.092 |
| DLGGMP | -0.501 ± 0.48 |
| DLGHTYTSMYGFLTPSRDVD | -0.052 ± 0.5 |
| DLVRYFC | 4.26 ± 0.055 |
| DMDRCLGY | 0.812 ± 0.2 |
| DMNVVYTVCRVKARDCERDY | 5.322 ± 0.041 |
| DMTVLYCMFCSLSWQINCFR | 0.838 ± 0.25 |
| DMWTSFWSCSTYRKEYFTRC | 1.25 ± 0.11 |
| DMYLRIS | inactive |
| DNCLTGIEWI | -1.83 ± 1 |
| DNCRYVKRSSYSRVCAHYKS | -0.627 ± 0.41 |
| DNILICMYGDVYMGCYCQAI | 8.632 ± 0.05 |
| DNVGYYNINKDLKFIVGSSH | 0.274 ± 1.1 |
| DRAVLRGVVSDNSV | 0.439 ± 0.74 |
| DRFVWVADTWWSRRNNAAFG | 4.16 ± 0.054 |
| DRQTATSEMVSNRLISFRLV | 0.145 ± 0.19 |
| DRRELRHDDAVVAYIDVVIE | 1.05 ± 0.28 |
| DRRRK | 1.43 ± 0.23 |

| Substance | amyloid nucleation score |
| --- | --- |
| DRYNHKSSMIREVRLLIASY | -0.123 ± 0.76 |
| DRYYVFLILWTRGNTRRPTG | -1.02 ± 0.39 |
| DSDKLHDRDVVWNWGRGLYR | 0.399 ± 0.23 |
| DSEHYVMWLKWYLLFLTYTH | -0.307 ± 0.3 |
| DSFLKKCSLIRIQVRAVFVL | -1.14 ± 1 |
| DSIYVL | -0.831 ± 0.44 |
| DSLFIACVSLF | -0.26 ± 0.63 |
| DSLPSRNSNIGWIQWILWGI | -0.121 ± 1.1 |
| DSSMFYVIGLL | -0.626 ± 0.79 |
| DSSVSAPMSSFDRWTTHCVL | 0.373 ± 0.43 |
| DSWFRPVLNFPCSRNANKSL | 1.95 ± 0.25 |
| DSYGSFVKLMTVSVYMKGVF | inactive |
| DTALFYSNNVMTSKVGAQKS | -0.003 ± 1.1 |
| DTMRYLAGYLMACWPVEWSG | 0.685 ± 0.22 |
| DVCMPIKKSITITTATVRVY | -0.545 ± 0.63 |
| DVGSCVRGYTGQSKNLWTYG | 0.028 ± 0.79 |
| DVRPDLNDKSRTVDSDVLLC | -0.846 ± 0.78 |
| DVSVNRARFPREF | 1.1 ± 0.17 |
| DVVEDF | -0.02 ± 0.49 |
| DVVKNLYSSGLGLSTCMLYI | -0.95 ± 0.55 |
| DWVINS | -0.462 ± 0.78 |
| DWWLLYNCRSRMMGIKADPL | inactive |
| DWWLNGLFP | inactive |
| DYAIVSGVLLTQMQQLMCFV | 0.466 ± 0.33 |
| DYILLARYSRNVHCS | -0.343 ± 0.37 |
| DYITCQFYLTVFELSCCMSC | 7.932 ± 0.047 |

| Substance | amyloid nucleation score |
| --- | --- |
| DYLYCSAQFRHMRVQSPGNA | 0.885 ± 0.2 |
| DYMNGDKSKKGDYWIMSVNS | 0.154 ± 0.65 |
| DYNFIQRNNCGALCKYAKTL | -1.55 ± 0.62 |
| DYVSGYRVGQFVMLLGRLRN | -0.205 ± 0.55 |
| EACVISNGISILL | -0.54 ± 0.35 |
| EAHILRLYMLSRLSGIVHMV | 0.434 ± 0.56 |
| EARVSDSVFGLVVVKTMCYV | 5.535 ± 0.043 |
| EASKGHISTVLWLGGVIS | -0.352 ± 0.65 |
| ECRFKDTATRFRQSLRFYNM | inactive |
| ECSRSINYLRLVLNLE | 0.708 ± 0.34 |
| ECVLMTGTMWSTSSALW | 0.877 ± 0.53 |
| EDEWMHLVRVQFQGKDRKAA | 0.92 ± 0.28 |
| EEMMFPFAFVFFICSFRNRL | 2.9 ± 0.065 |
| EEMMSRYSLTVKML | 0.391 ± 0.34 |
| EEVVVVWFIRDKDLALKLVV | inactive |
| EEWSYVDSEPSIRFSRIQDV | -0.516 ± 0.42 |
| EEWYHADVSCVHRKIPNATR | 0.644 ± 0.81 |
| EFCIPKNLRSW | 0.182 ± 0.22 |
| EFIEYTSFYWWNLLRLGVHS | -0.61 ± 0.23 |
| EFIMTCAQVPRTFDVHSNRS | 6.479 ± 0.054 |
| EFKHSLIVASARRRNDFGYR | 0.224 ± 0.43 |
| EFLRRD | 0.055 ± 0.26 |
| EFNLLRYSVETNIISEKKLV | 0.129 ± 0.54 |
| EFQGVS | 0.343 ± 0.64 |
| EFQIMFVFHWT | inactive |
| EFSFHSWQLVTSCQEECCLD | inactive |

| Substance | amyloid nucleation score |
| --- | --- |
| EGCMSFFKRSQYATDQDLGA | -0.24 ± 0.39 |
| EGFEFCWINNMDWSMPWVTN | 5.08 ± 0.062 |
| EGFHGRMCHEHGKVLKAID | 0.178 ± 0.24 |
| EGLLHTYCICGFLVYHYMEV | 3.77 ± 0.054 |
| EGNRNEVSFYVMFSAVPSGL | 9.221 ± 0.059 |
| EGRCNYTGHMFCRYLCKHYT | -0.088 ± 1.1 |
| EGTFGAPFVTSLLSLRFECV | -0.85 ± 0.63 |
| EIIYSQSDSVYGCGGY | inactive |
| EKWLGLFKTYAESFDSCCLG | -0.581 ± 0.29 |
| ELCTKAINVMN | 0.433 ± 0.48 |
| ELLEGYSLKEMYAFPVKWAV | 0.741 ± 0.6 |
| ELLGSLCRNRVGTWTICNMS | 0.52 ± 0.34 |
| ELLGVQFRSRKYAATQNQWP | 2.03 ± 0.19 |
| ELLSYRRSIKYCMGLEEPWA | -0.119 ± 0.49 |
| ELSGGQTLLCRSVYLDVDRV | 3.74 ± 0.064 |
| ELWLYFFL | -1.07 ± 0.34 |
| ELWVSQTTNEFSFVVGHVVC | 0.025 ± 0.5 |
| EMICVYSNFMKWVWSSFQTV | -0.832 ± 0.33 |
| EMSRMASNISRMKVSRASKH | 1.15 ± 0.38 |
| ENFGVVMRWGYIRLLLQANW | inactive |
| ENGRYHFFKAEHWFCRLMMM | inactive |
| ENGTLTIYMVAL | 4.39 ± 0.075 |
